Data: patent US20160304578A1 (XYPHOS BIOSCIENCES, published 2016)

T1: human NKG2D-Fc (human, UniProt P26718 78-216, limits assumed)
T1 construct: not shown: Fc part
T1 sequence (looked up): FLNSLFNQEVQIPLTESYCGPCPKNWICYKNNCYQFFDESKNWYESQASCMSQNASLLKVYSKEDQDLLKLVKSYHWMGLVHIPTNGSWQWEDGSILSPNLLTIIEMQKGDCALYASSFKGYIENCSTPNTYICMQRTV

B1: biotinylated human NKG2D (receptor, UniProt P26718 78-216, looked up)
chain: T1 sequence (looked up)
modifications: biotinylated (site not stated)
notes: also called recombinant biotinylated NKG2D
B2: WT α1-α2 soluble MICA protein (ligand, UniProt Q29983 24-299, looked up)
chain: EPHSLRYNLTVLSWDGSVQSGFLTEVHLDGQPFLRCDRQKCRAKPQGQWAEDVLGNKTWDRETRDLTGNGKDLRMTLAHIKDQKEGLHSLQEIRVCEIHEDNSTRSSQHFYYDGELFLSQNLETKEWTMPQSSRAQTLAMNVRNFLKEDAMKTKTHYHAMHADCLQELRRYLKSGVVLRRTVPPMVNVTRSEASEGNITVTCRASGFYPWNITLSWRQDGVSLSHDTQQWGDVLPDGNGTYQTWVATRICQGEEQRFTCYMEHSGNHSTHPVPSGK
notes: also called WT MICA; WT NKG2DL

What was measured:
[1] = target: B2; test: biolayer interferometry (Octet), Kd = kOFF/kON
[2] = target: B2; test: biolayer interferometry (Octet), surface-coated biotinylated human NKG2D, 100 nM protein
human NKG2D-Fc = target: T1, human NKG2D-Fc; test: competition ELISA: inhibits 2 nM human NKG2D-Fc binding to plate-coated WT sMICA
Text: Using a competitive binding ELISA, we determined the relative NKG2D binding affinities of the 4 modified α1-α2 variants.

Binder: B1
- Kd [1]: 13.8 nM
- koff [2]: 0.0018 s⁻¹
- kon [2]: 130000 M⁻¹ s⁻¹

Binder: B2
- IC50 (human NKG2D-Fc): 19.4 nM
